The results in this text go back to PMC8867921.

The assay has as its target nucleosome N(13,91) (chicken). Nature of the assay: single-particle FRET.

In turn, “poly(ADP-ribose) polymerase 1 (from UniProt P09874 1-1014) (enzyme)” showed a content of PARP1-nucleosome complexes at 50 nM PARP1 of 45%.
